The record followed here is patent US20240010749A1.

The target in assay [1] is human CEACAM5 expressed on cancer cell lines (MKN-45, NCI-H441, SNU-16, SK-CO-1, LS174T) (human) (UniProt P06731). The assay can be described thus: flow cytometry, MKN-45 cells, 10 µg/mL antibody.
Assay [2] shares this target. The assay can be described thus: flow cytometry, NCI-H441 cells, 10 µg/mL antibody.

human CEACAM5 expressed on cancer cell lines (MKN-45, NCI-H441, SNU-16, SK-CO-1, LS174T) (human), sequence (P06731 35-685): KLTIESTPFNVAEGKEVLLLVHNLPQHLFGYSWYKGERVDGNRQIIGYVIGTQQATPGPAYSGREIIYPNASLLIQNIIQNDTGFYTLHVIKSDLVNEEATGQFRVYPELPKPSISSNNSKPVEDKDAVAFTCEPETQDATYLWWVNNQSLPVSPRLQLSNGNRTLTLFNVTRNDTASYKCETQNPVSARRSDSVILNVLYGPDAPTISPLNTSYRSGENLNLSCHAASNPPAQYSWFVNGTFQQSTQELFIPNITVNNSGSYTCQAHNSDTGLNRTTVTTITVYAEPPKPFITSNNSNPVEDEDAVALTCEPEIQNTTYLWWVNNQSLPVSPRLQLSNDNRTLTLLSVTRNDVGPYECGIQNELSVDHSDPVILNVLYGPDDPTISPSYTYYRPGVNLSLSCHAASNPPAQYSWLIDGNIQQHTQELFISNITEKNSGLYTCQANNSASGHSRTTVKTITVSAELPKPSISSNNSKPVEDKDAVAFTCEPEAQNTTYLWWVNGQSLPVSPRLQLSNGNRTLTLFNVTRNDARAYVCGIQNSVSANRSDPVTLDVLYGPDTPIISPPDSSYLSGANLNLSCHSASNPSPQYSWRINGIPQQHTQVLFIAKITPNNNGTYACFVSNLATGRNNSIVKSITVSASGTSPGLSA

“mouse monoclonal anti-CEACAM5 antibody Agilent Dako #M7072 clone II7”: the quotient of MFI of antibody divided by MFI of secondary antibody only control in assay [1] was 3.8; in assay [2], 1.1.
